According to patent US20130072665A1 (Amgen, published 2013):
Read-outs that look alike come from different tables or passages of the source.

T1: PCSK9 V domain (450-692 of SEQ ID NO: 3) (human, UniProt Q8NBP7 450-692)
T1 construct: also called v-domain PCSK9
T1 chain: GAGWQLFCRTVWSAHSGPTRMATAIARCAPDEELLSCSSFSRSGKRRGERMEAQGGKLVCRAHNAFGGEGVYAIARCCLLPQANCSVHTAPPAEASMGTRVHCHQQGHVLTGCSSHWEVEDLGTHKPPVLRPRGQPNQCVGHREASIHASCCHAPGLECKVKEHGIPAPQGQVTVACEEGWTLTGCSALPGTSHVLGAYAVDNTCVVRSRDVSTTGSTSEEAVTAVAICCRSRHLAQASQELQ


What was measured:
Test in all cases: domain binding ELISA (coated antibody captures the PCSK9 form; OD650)
[1] = target: T1, PCSK9 V domain (450-692 of SEQ ID NO: 3)
Protocol: (§1) Clear, 96 well maxisorp plates (Nunc) were coated overnight with 2 ug/ml of various anti-PCSK9 antibodies diluted in PBS. Plates were washed thoroughly with PBS/0.05% Tween-20 and then blocked for two hours with 3% BSA/PBS.

[2] = target: T1, PCSK9 V domain (450-692 of SEQ ID NO: 3)
Protocol: as §1

[3] = target: T2, PCSK9 ProCat (31-449 of SEQ ID NO: 3) (human, UniProt Q8NBP7 27-449)
T2 construct: From PCSK9 449TEV after rTEV cleavage: GAMG-PCSK9 (31-449)-ENLYFQ; Written as one chain; autocatalysis between 152 and 153 splits pro-domain and catalytic domain; also called procat PCSK9; PCSK9 31-449
Protocol: as §1

| binding result [1] | binding result [2] | binding result [3] | Binder |
| --- | --- | --- | --- |
| no binding | – | – | 16F12 (antibody, V domains shown, lambda light chain) VH: QVHLVESGGGVVQPGRSLRLSCAASGFTFNSFGMHWVRQAPGKGLEWVALIWSDGSDEYYADSVKGRFTISRDNSKNTLYLQMNSLRAEDTAVYYCARAIAALYYYYGMDVWGQGTTVTVSS VL: QSVLTQPPSVSAAPGQKVTISCSGSSSNIGNNFVSWYQQLPGTAPKLLIYDYNKRPSGIPDRFSGSKSGTSATLGITGLQTGDEADYYCGTWDSSLSAYVFGTGTRVTVL |
| – | no binding | – | 31B12 (antibody, V domains shown) VH: QVQLVESGGGVVQPGRSLRLSCAASGFTFSSYGMHWVRQAPGKGLEWVAIIWYDGSNKYYADSVKGRFTISRDNSKNTLYLQMNSLRAEDTAVYYCARRGGLAARPGGMDVWGQGTTVTVSS VL: SYELTQPPSVSVSPGQTARITCSGDKLGDKYACWYQQKPGQSPVLVIYQNTKWPLGIPERFSGSKSGNTVTLTISGTQAMDEADYYCQAWDSSTVVFGGGTKLTVL |
| no binding | – | binds | 20D10 (antibody, V domains shown) VH: QIQLVQSGAEVKKPGASVKVSCKASGYPLTSYGISWVRQAPGQGLEWMGWISAYNGNTNYAQKVQGSVTMTTDTSTSTVYMELRSLRSDDTAVYYCARGYGMDVWGQGTTVTVSS VL: QSALTQPASVSGSPGQSITISCTGTSSDVGGYNSVSWYQQYPGKPPKLKIYEVSNRPSGVSNRFSGSKSGNTASLTISGLQAEDEADYFCSSYTSTSMVFGGGTKLTVL |
| no binding | – | binds | 31D1 (antibody, V domains shown) VH: QIQLVQSGAEVKKPGASVKVSCKASGYTLTSYGISWVRQAPGQGLEWMGWISFYNGNTNYAQKVQGRVTMTTDTSTSTVYMELRSLRSDDTAVYFCARGYGMDVWGQGTTVTVSS VL: QSALTQPASVSGSPGQSITISCTGTSSDVGGYNSVSWYQQHPGKPPKLMIYEVSNRPSGVSNRFSGSKSGNTASLTISGLQAEDEADYFCSSYTSTSMVFGGGTKLAVL |

Continued, binder first:

| Binder | binding result [1] | binding result [2] | binding result [3] |
| --- | --- | --- | --- |
| 31G11 (antibody, V domains shown) VH: QVQLVESGGGVVQPGRSLRLSCAASGFTFRSYGMHWVRQAPGKGLEWVALIWHDGSNTYYVDSVKGRFTISRDNSKNTLYLQMNSLRAEDTAVYYCARGIAVAYYYYGMDVWGQGTTVTVSS VL: QSVLTQPPSVSAAPGQKVTISCSGSSSNIGNNFVSWYQQLPGTAPKLLIYDSNKRPSGIPDRFSGSKSGTSATLDITGLQTGDEADYYCGTWDSSLSAYVFGTGTKVTVL | no binding | – | – |
| 26E10.1 (antibody, V domains shown, subclone) VH: QVQLVQSGAEVKKPGASVKVSCKASGYTLTSYGISWVRQAPGQGLEWMGWVSFYNGNTNYAQKLQGRGTMTTDPSTSTAYMELRSLRSDDTAVYYCARGYGMDVWGQGTTVTVSS VL: QSALTQPASVSGSPGQSITISCTGTSSDVGGYNSVSWYQQHPGKAPKLMIYEVSNRPSGVFNRFSGSKSGNTASLTISGLQAEDEADYYCNSYTSTSMVFGGGTKLTVL | – | no binding | – |
| 17C2.1 (antibody, V domains shown, subclone) VH: QVQLVQSGAEVKKPGASVKVSCKASGYSFTSYGISWVRQAPGQGLEWMGWVSAYNGNTNYAQKFQGRVTMTTDTSTSTAYMELRSLRSDDTAVYYCARGYVMDVWGQGTTVTVSS VL: QSALTQPASVFGSPGQSITISCTGTSSDVGAYNSVSWYQQHPGKAPKRMIYEVSNRPSGVSNRFSGSKSGNTASLTISGLQAEDEADYYCSSYTSTNMVFGGGTKLTVL | – | no binding | – |
| 23G1 (antibody, V domains shown) VH: QVQLVQSGAEVKKPGASVKVSCKASGYTLTSYGISWVRQAPGQGLEWMGWVSFYNGNTNYAQKLQGRGTMTTDPSTSTAYMELRSLRSDDTAVYYCARGYGMDVWGQGTTVTVSS VL: QSALTQPASVSGSPGQSITISCTGTSSDVGGYNSVSWYQQHPGKAPKLMIYEVTNRPSGVSNRFSGSKSGNTASLTISGLQAEDEADYYCNSYTSTSMVFGGGTKLTVL | no binding | – | binds |
